Data: paper PMC4163509 (Molecular and cellular endocrinology, 2014)
Values belong to the molecule of their own block, whether it stands above or below them.

Columns and labels:
[1] = target: T1, Methoprene-tolerant (Met) protein, AaMet (Aedes aegypti, UniProt Q58FS0); assay: [3H]-JH-III dextran-coated charcoal radioligand binding, Scatchard
T1 sequence (Q58FS0 1-597): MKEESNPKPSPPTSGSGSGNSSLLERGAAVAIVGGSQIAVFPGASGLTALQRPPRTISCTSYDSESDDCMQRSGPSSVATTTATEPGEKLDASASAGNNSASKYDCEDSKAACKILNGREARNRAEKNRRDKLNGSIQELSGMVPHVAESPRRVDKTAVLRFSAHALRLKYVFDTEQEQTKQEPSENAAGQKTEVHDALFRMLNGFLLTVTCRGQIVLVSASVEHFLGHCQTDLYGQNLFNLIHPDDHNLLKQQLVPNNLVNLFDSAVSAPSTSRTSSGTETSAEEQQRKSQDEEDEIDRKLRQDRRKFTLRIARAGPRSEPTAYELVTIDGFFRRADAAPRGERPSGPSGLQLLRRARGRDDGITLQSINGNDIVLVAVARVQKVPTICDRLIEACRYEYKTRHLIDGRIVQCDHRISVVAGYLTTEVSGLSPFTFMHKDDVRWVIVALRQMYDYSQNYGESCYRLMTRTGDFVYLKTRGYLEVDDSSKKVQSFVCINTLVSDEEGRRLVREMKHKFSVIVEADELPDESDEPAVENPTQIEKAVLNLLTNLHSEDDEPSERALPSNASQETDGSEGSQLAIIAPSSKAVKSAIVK

[2] = target: bHLH-PAS domain of AaMet fused to the GAL4 DNA-binding domain (Aedes aegypti) (UniProt Q58FS0); assay: two-hybrid
GST-AaMet (bHLH-PAS) = target: T2, GST-AaMet (bHLH-PAS) (Aedes aegypti, UniProt Q58FS0 1-597); assay: EMSA
T2 sequence: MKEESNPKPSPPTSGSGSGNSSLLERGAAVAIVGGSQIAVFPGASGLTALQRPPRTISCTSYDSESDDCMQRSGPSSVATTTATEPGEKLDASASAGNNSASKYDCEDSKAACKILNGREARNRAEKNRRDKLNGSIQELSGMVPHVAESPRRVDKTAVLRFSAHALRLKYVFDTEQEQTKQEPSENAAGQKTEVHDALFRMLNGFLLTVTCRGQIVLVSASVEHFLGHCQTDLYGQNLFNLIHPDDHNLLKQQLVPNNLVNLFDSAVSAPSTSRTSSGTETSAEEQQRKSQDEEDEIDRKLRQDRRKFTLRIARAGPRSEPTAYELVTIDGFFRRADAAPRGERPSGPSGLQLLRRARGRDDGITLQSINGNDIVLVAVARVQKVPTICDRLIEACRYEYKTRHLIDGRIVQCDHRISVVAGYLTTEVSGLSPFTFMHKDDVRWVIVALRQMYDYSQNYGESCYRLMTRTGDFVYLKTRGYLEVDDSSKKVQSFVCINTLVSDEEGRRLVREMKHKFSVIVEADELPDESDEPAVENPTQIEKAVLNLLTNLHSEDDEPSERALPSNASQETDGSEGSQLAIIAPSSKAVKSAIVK

Molecule: COC(=O)/C=C(\C)CC/C=C(\C)CC[C@H]1OC1(C)C [JH-III]
Kd [1]: 4.4 ± 1.9 nM

fold enhancement of two-hybrid reporter activation with JH-III [2]: > 20 fold
Molecule: bHLH-PAS domain of AaFISC fused to the activation domain of GAL4 (domain or fragment)

B1: AaET_JHRE1 (dsDNA)
DNA 1: CCATCCCACACGCGAAGACGATAAAACCA
DNA 2: TGGTTTTATCGTCTTCGCGTGTGGGATGG
binding result (GST-AaMet (bHLH-PAS)): no binding
